Laboratory results: PMC11132685

Tests used:
Assay in all cases: SEC-MALS; purified NACHOs; oligomeric state; conditions not given
[1] = target: tetrabrachion-stabilised recombinant N2 NA (NACHO) of A/HELSINKI/941/2013 (not stated | influenza A virus (H3N2) A/HELSINKI/941/2013)
[2] = target: tetrabrachion-stabilised recombinant N2 NA (NACHO) of A/HOKKAIDO/10H079/2011 (not stated | influenza A virus (H3N2) A/HOKKAIDO/10H079/2011)
[3] = target: tetrabrachion-stabilised recombinant N2 NA (NACHO) of A/NEWCALEDONIA/23/2016 (not stated | influenza A virus (H3N2) A/NEWCALEDONIA/23/2016)
[4] = target: tetrabrachion-stabilised recombinant N2 NA (NACHO) of A/ALASKA/251/2015 (not stated | influenza A virus (H3N2) A/ALASKA/251/2015)
[5] = target: tetrabrachion-stabilised recombinant N2 NA (NACHO) of A/ONTARIO/RV3236/2016 (not stated | influenza A virus (H3N2) A/ONTARIO/RV3236/2016)
[6] = target: tetrabrachion-stabilised recombinant N2 NA (NACHO) of A/NAGANO/2153/2017 (not stated | influenza A virus (H3N2) A/NAGANO/2153/2017)
[7] = target: tetrabrachion-stabilised recombinant N2 NA (NACHO) of A/STOCKHOLM/15/2014 (not stated | influenza A virus (H3N2) A/STOCKHOLM/15/2014)
[8] = target: tetrabrachion-stabilised recombinant N2 NA (NACHO) of A/HONGKONG/3089/2017 (not stated | influenza A virus (H3N2) A/HONGKONG/3089/2017)
[9] = target: tetrabrachion-stabilised recombinant N2 NA (NACHO) of A/DAKAR/14/2014 (not stated | influenza A virus (H3N2) A/DAKAR/14/2014)
[10] = target: tetrabrachion-stabilised recombinant N2 NA (NACHO) of A/POLAND/19B/2017 (not stated | influenza A virus (H3N2) A/POLAND/19B/2017)
[11] = target: tetrabrachion-stabilised recombinant N2 NA (NACHO) of A/OHIO/62/2012 (not stated | influenza A virus (H3N2) A/OHIO/62/2012)
[12] = target: tetrabrachion-stabilised recombinant N2 NA (NACHO) of A/HANOI/ELI15597/2015 (not stated | influenza A virus (H3N2) A/HANOI/ELI15597/2015)
[13] = target: tetrabrachion-stabilised recombinant N2 NA (NACHO) of A/UTAH/11/2011 (not stated | influenza A virus (H3N2) A/UTAH/11/2011)
[14] = target: tetrabrachion-stabilised recombinant N2 NA (NACHO) of A/WISCONSIN/16/2015 (not stated | influenza A virus (H3N2) A/WISCONSIN/16/2015)
[15] = target: tetrabrachion-stabilised recombinant N2 NA (NACHO) of A/ESTONIA/91621/2015 (not stated | influenza A virus (H3N2) A/ESTONIA/91621/2015)
[16] = target: tetrabrachion-stabilised recombinant N2 NA (NACHO) of A/OHIO/13/2017 (not stated | influenza A virus (H3N2) A/OHIO/13/2017)
[17] = target: tetrabrachion-stabilised recombinant N2 NA (NACHO) of A/PORTOALEGRE/LACENRS2376/2014 (not stated | influenza A virus (H3N2) A/PORTOALEGRE/LACENRS2376/2014)
[18] = target: tetrabrachion-stabilised recombinant N2 NA (NACHO) of A/TASMANIA/1018/2015 (not stated | influenza A virus (H3N2) A/TASMANIA/1018/2015)
[19] = target: tetrabrachion-stabilised recombinant N2 NA (NACHO) of A/PERTH/16/2009 (not stated | influenza A virus (H3N2) A/PERTH/16/2009)
[20] = target: tetrabrachion-stabilised recombinant N2 NA (NACHO) of A/STOCKHOLM/32/2014 (not stated | influenza A virus (H3N2) A/STOCKHOLM/32/2014)
[21] = target: tetrabrachion-stabilised recombinant N2 NA (NACHO) of A/INDIANA/08/2011 (not stated | influenza A virus (H3N2) A/INDIANA/08/2011)
[22] = target: tetrabrachion-stabilised recombinant N2 NA (NACHO) of A/SWEDEN/3/2017 (not stated | influenza A virus (H3N2) A/SWEDEN/3/2017)
[23] = target: tetrabrachion-stabilised recombinant N2 NA (NACHO) of A/GAMBIA/G0071436/2012 (not stated | influenza A virus (H3N2) A/GAMBIA/G0071436/2012)
[24] = target: tetrabrachion-stabilised recombinant N2 NA (NACHO) of A/XINJ…/1411/2012 (not stated | influenza A virus (H3N2) A/XINJ…/1411/2012)
[25] = target: tetrabrachion-stabilised recombinant N2 NA (NACHO) of A/HEILONGJIANGXIANGYANG/1134/2011 (not stated | influenza A virus (H3N2) A/HEILONGJIANGXIANGYANG/1134/2011)
[26] = target: tetrabrachion-stabilised recombinant N2 NA (NACHO) of A/HELSINKI/823/2013 (not stated | influenza A virus (H3N2) A/HELSINKI/823/2013)
[27] = target: tetrabrachion-stabilised recombinant N2 NA (NACHO) of A/SWITZERLAND/9715293/2013 (not stated | influenza A virus (H3N2) A/SWITZERLAND/9715293/2013)
[28] = target: tetrabrachion-stabilised recombinant N2 NA (NACHO) of A/MINNESOTA/11/2010 (not stated | influenza A virus (H3N2) A/MINNESOTA/11/2010)
[29] = target: tetrabrachion-stabilised recombinant N2 NA (NACHO) of A/INDIANA/18/2017 (not stated | influenza A virus (H3N2) A/INDIANA/18/2017)
[30] = target: tetrabrachion-stabilised recombinant N2 NA (NACHO) of A/TEHRAN/996/2012 (not stated | influenza A virus (H3N2) A/TEHRAN/996/2012)

In the case of “tetrabrachion-stabilised recombinant N2 NA (NACHO) of A/HELSINKI/941/2013 (enzyme)”, the stoichiometry N [1] is reported as 4.
“tetrabrachion-stabilised recombinant N2 NA (NACHO) of A/HOKKAIDO/10H079/2011 (enzyme)” showed a stoichiometry N [2] of 4.
“tetrabrachion-stabilised recombinant N2 NA (NACHO) of A/NEWCALEDONIA/23/2016 (enzyme)” gave a stoichiometry N [3] of 4.
For “tetrabrachion-stabilised recombinant N2 NA (NACHO) of A/ALASKA/251/2015 (enzyme)”, the stoichiometry N [4] was 4.
Substance “tetrabrachion-stabilised recombinant N2 NA (NACHO) of A/ONTARIO/RV3236/2016 (enzyme)” has a stoichiometry N [5] of 4.
Substance “tetrabrachion-stabilised recombinant N2 NA (NACHO) of A/NAGANO/2153/2017 (enzyme)” has a stoichiometry N [6] of 4.
“tetrabrachion-stabilised recombinant N2 NA (NACHO) of A/STOCKHOLM/15/2014 (enzyme)” showed a stoichiometry N [7] of 4.
Substance “tetrabrachion-stabilised recombinant N2 NA (NACHO) of A/HONGKONG/3089/2017 (enzyme)” has a stoichiometry N [8] of 4.
With “tetrabrachion-stabilised recombinant N2 NA (NACHO) of A/DAKAR/14/2014 (enzyme)” the stoichiometry N [9] was 4.
Substance “tetrabrachion-stabilised recombinant N2 NA (NACHO) of A/POLAND/19B/2017 (enzyme)” has a stoichiometry N [10] of 4.
“tetrabrachion-stabilised recombinant N2 NA (NACHO) of A/OHIO/62/2012 (enzyme)” gave a stoichiometry N [11] of 4.
“tetrabrachion-stabilised recombinant N2 NA (NACHO) of A/HANOI/ELI15597/2015 (enzyme)” showed a stoichiometry N [12] of 4.
Work on “tetrabrachion-stabilised recombinant N2 NA (NACHO) of A/UTAH/11/2011 (enzyme)” yielded a stoichiometry N [13] of 4.
“tetrabrachion-stabilised recombinant N2 NA (NACHO) of A/WISCONSIN/16/2015 (enzyme)” gave a stoichiometry N [14] of 4.
Work on “tetrabrachion-stabilised recombinant N2 NA (NACHO) of A/ESTONIA/91621/2015 (enzyme)” yielded a stoichiometry N [15] of 4.
“tetrabrachion-stabilised recombinant N2 NA (NACHO) of A/OHIO/13/2017 (enzyme)” was tested, and the stoichiometry N [16] was 4.
Substance “tetrabrachion-stabilised recombinant N2 NA (NACHO) of A/PORTOALEGRE/LACENRS2376/2014 (enzyme)” has a stoichiometry N [17] of 4.
Substance “tetrabrachion-stabilised recombinant N2 NA (NACHO) of A/TASMANIA/1018/2015 (enzyme)” has a stoichiometry N [18] of 4.
For “tetrabrachion-stabilised recombinant N2 NA (NACHO) of A/PERTH/16/2009 (enzyme)”, the stoichiometry N [19] was 4.
With “tetrabrachion-stabilised recombinant N2 NA (NACHO) of A/STOCKHOLM/32/2014 (enzyme)” the stoichiometry N [20] was 4.
Work on “tetrabrachion-stabilised recombinant N2 NA (NACHO) of A/INDIANA/08/2011 (enzyme)” yielded a stoichiometry N [21] of 4.
For “tetrabrachion-stabilised recombinant N2 NA (NACHO) of A/SWEDEN/3/2017 (enzyme)”, the stoichiometry N [22] was 4.
For “tetrabrachion-stabilised recombinant N2 NA (NACHO) of A/GAMBIA/G0071436/2012 (enzyme)”, the stoichiometry N [23] was 4.
Substance “tetrabrachion-stabilised recombinant N2 NA (NACHO) of A/XINJ…/1411/2012 (enzyme)” has a stoichiometry N [24] of 4.
Work on “tetrabrachion-stabilised recombinant N2 NA (NACHO) of A/HEILONGJIANGXIANGYANG/1134/2011 (enzyme)” yielded a stoichiometry N [25] of 4.
“tetrabrachion-stabilised recombinant N2 NA (NACHO) of A/HELSINKI/823/2013 (enzyme)” gave a stoichiometry N [26] of 4.
In the case of “tetrabrachion-stabilised recombinant N2 NA (NACHO) of A/SWITZERLAND/9715293/2013 (enzyme)”, the stoichiometry N [27] is reported as 4.
“tetrabrachion-stabilised recombinant N2 NA (NACHO) of A/MINNESOTA/11/2010 (enzyme)” showed a stoichiometry N [28] of 4.
“tetrabrachion-stabilised recombinant N2 NA (NACHO) of A/INDIANA/18/2017 (enzyme)” showed a stoichiometry N [29] of 4.
“tetrabrachion-stabilised recombinant N2 NA (NACHO) of A/TEHRAN/996/2012 (enzyme)” was tested, and the stoichiometry N [30] was 4.
